# From patent publication US20260139049A1 (PEDIATRIC IMMUNITY AND HEALTHCARE GUANGZHOU BIOTECHNOLOGY, published 2026)
# Read-outs that look alike come from different tables or passages of the source.
# T1: human CLDN9 (human, UniProt O95484 1-217)
# T1 construct: whole, on cells; also called HEK293T-CLDN9
# T1 sequence (looked up): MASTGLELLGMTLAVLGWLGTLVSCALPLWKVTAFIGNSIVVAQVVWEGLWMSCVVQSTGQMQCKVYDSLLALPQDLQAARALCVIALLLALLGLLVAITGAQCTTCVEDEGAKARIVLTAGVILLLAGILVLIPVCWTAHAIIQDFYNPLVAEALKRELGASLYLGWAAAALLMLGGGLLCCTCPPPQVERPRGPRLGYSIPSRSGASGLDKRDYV
# T2: mouse CLDN6 (mouse, UniProt Q9Z262 1-219)
# T2 construct: whole, on cells; also called CHO-K1-Mouse CLDN6
# T2 sequence (looked up): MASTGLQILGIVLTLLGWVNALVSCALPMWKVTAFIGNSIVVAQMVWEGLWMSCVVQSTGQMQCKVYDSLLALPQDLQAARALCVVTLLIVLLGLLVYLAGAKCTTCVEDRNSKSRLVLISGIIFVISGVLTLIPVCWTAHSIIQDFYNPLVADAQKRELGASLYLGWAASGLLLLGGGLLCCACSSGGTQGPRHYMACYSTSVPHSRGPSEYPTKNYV
# T3: human CLDN6 (human, UniProt P56747 1-220)
# T3 construct: whole, on cells; four-transmembrane protein; also called claudin-6; HEK293T-CLDN6
# T3 sequence (looked up): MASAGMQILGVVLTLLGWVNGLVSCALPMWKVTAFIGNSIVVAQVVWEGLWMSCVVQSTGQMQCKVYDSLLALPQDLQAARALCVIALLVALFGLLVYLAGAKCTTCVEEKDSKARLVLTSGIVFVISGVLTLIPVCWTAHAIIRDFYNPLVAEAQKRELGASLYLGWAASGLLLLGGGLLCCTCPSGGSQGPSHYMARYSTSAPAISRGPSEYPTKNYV
# T4: human CLDN3 (human, UniProt O15551 1-220)
# T4 construct: whole, on cells; also called HEK293T-CLDN3
# T4 sequence (looked up): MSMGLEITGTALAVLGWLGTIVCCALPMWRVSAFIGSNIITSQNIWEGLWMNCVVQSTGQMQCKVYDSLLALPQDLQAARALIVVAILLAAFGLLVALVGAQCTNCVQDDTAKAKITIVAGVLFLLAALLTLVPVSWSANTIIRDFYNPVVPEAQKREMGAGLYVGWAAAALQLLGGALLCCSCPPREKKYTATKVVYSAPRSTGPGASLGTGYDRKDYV
# What was measured:
# human CLDN9 [1] = target: T1, human CLDN9; experiment: FACS on 293T-CLDN9 cells, 10 µg/mL
# Method: (§1) 50 μL of an antibody to be tested was added to a 96-well plate, then 1× 10⁵ cells were added to each well, and incubation was conducted at 4° C. for 1 h. Cells were washed three times with PBS. […] Finally, cells were washed three times with PBS, and signals were read using FACS. Binding capacities of the antibody to CLDN9, CLDN3, and CLDN4 were analyzed separately based on detection data.
# mouse CLDN6 = target: T2, mouse CLDN6; experiment: FACS on CHO-K1-Mouse CLDN6 cells
# human CLDN6 [2] = target: T3, human CLDN6; experiment: FACS on HepG2 tumour cells; target on the cells taken as CLDN6
# Method: The specific binding of a chimeric antibody to a tumor cell was detected by FACS, and an EC50 value was calculated accordingly to evaluate an inhibitory effect of the chimeric antibody on the tumor cell.
# as §1, with “1×10⁵” for “1× 10⁵”, “A binding capacity” for “Binding capacities”, “each tumor cell was” for “CLDN9, CLDN3, and CLDN4 were”, “analyzed” for “analyzed separately”
# human CLDN6 [3] = target: T3, human CLDN6; experiment: FACS on HEK293T-CLDN6 cells
# Method: (§2) To detect a binding capacity of a chimeric or humanized antibody to CLDN6, a CLDN6-expressing cell line HEK293T-CLDN6 and a CLDN6-negative control cell line HEK293T were washed three times with PBS. 1×10⁵ test cells and 50 μL of an antibody solution to be tested were added to a 96-well plate, and incubated at 4° C. for 1 h. The cells were then washed three times with PBS. […] Finally, cells were washed three times with PBS, and signals were read using FACS.
# (§3) An EC50 value (a concentration of an antibody that binds to half of binding sites at equilibrium) is calculated through nonlinear regression.
# human CLDN9 [4] = target: T1, human CLDN9; experiment: FACS on 293T-CLDN9 cells, 10 µg/mL; remark: listed apart in the source
# Method: as §1
# human CLDN6 [5] = target: T3, human CLDN6; experiment: FACS on HEK293T-CLDN6 cells; remark: listed apart in the source
# Method: as §2, §3
# human CLDN3 = target: T4, human CLDN3; experiment: FACS on 293T-CLDN3 cells, 10 µg/mL
# Method: as §1
binder,measurement,setting,value
"IMAB027 (antibody, human IgG1, kappa, V domains shown, variable regions of mAb206-LCC on human IgG1 constant regions; also called benchmark antibody; control antibody) VH: EVQLQQSGPELVKPGASMKISCKASGYSFTGYTMNWVKQSHGKNLEWIGLINPYNGGTIYNQKFKGKATLTVDKSSSTAYMELLSLTSEDSAVYYCARDYGFVLDYWGQGTTLTVSS VL: IVLTQSPAIMSASPGEKVTITCSASSSVSYLHWFQQKPGTSPKLWVYSTSNLPSGVPARFGGSGSGTSYSLTISRMEAEDAATYYCQQRSIYPPWTFGGGTKLEIKR",Geom.Mean,human CLDN9 [1],985
same,EC50,mouse CLDN6,0.181 mg/L
same,EC50,human CLDN6 [2],0.192 mg/L
same,EC50,human CLDN6 [3],0.0727 mg/L
same,Geom.Mean,human CLDN9 [4],3810
same,EC50,human CLDN6 [5],0.0461 mg/L
same,Geom.Mean,human CLDN3,151
